In patent publication US20210388097A1 (SORRENTO THERAPEUTICS, published 2021):

Target: T1, his-tagged human BCMA protein (ACROBiosystems, catalog # BCA-H522y-100 ug) (human, UniProt Q02223 1-54)
T1 construct: limits of the bought construct are not otherwise stated; also called recombinant his-tagged human BCMA; not shown: his tag of the bought protein
T1 sequence: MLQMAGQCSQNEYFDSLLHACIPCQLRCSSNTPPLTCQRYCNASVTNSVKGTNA
Assay: SPR (Biacore T200), antibody captured on anti-human Fc, his-tagged human BCMA as analyte; fit with ka1/kd1/ka2/kd2 (model not named)
Description: Binding kinetics of anti-BCMA antibodies with his-tagged human BCMA protein (ACROBiosystems, catalog # BCA-H522y-100 ug, UniProt Q02223-1, SEQ ID NO:92) was measured using surface plasmon resonance (SPR). Kinetic interactions between the antibodies and his-tagged BCMA proteins were measured at 25° C. using Biacore T200 surface plasmon resonance (GE Healthcare). Anti-human fragment crystallizable region (Fc region) antibody was immobilized on a CM5 sensor chip to approximately 8000 resonance units (RU) using standard N-hydroxysuccinimide/N-Ethyl-N′-(3-dimethylaminopropyl) carbodiimide hydrochloride (NHS/EDC) coupling methodology. The anti-BCMA antibody (2 μg/mL) was captured for 60 seconds at a flow rate of 10 μL/minute. The his-tagged BCMA protein was run at […] different dilutions of 3.12, 6.25, 12.5, 25, 50, 100 and 200 nM, in a running buffer of 0.01 M HEPES pH 7.4, 0.15 M NaCl, 3 mM EDTA, 0.05% v/v Surfactant P20 (HBS-EP+). The 25 nM BCMA protein run was measured two times. All measurements were conducted in HBS-EP+ buffer with a flow rate of 30 μL/minute. […] The SPR sensorgrams of anti-BCMA antibodies BCA7, GSK J6M0, BC4C9 and BC5C4 are shown in FIGS. 1, 2, 3 and 4, respectively, and their corresponding binding kinetics are listed in Table 3.
Binding kinetics of optimized anti-BCMA antibodies BCA7-2C5, BCA7-2D11, BCA7-2G2, BCA7-2E1, BCA7-2D8 and BCA7-2E8, with his-tagged human BCMA protein (ACROBiosystems, catalog # BCA-H522y-100 ug), were analyzed in the manner as described above.

B1: BCA7-2C5 antibody (antibody, V domains shown)
VH: EVQLVESGGGLVKPGGSLRLSCAASGFTSSTAWMSWVRQAPGKGLEWVGRIKSKSDGGTTDYAAPVKGRFTISRDDSKNTLFLQMNSLKTEDTAVYYCAKGGGTYGYWGQGTTVTVSS
VL: QSALTQPASVSGSPGQSVTISCTGTSSAHGGHYYVSWYQQHPGKAPKLMIYDVSNRPSGVSNRFSGSKSGNTASLTISGLQAEDEADYYCGSYTSSGSYVFGTGTKLTVL
- Kd: 19.4 nM
- ka1: 1.37e+06 M⁻¹ s⁻¹
- ka2: 0.000847 s⁻¹
- kd1: 0.0422 s⁻¹
- kd2: 0.00145 s⁻¹
